According to patent US20240252614A1 (Pfizer, published 2024):

Legend:
Assay in all cases: BLI, no stress
hMPV078 = molecular target: T1, hMPV078 (hMPV A, UniProt Q6WB98 19-102)
T1 construct: T411C-Q434C, A140C-S149C
Description: (§1) The OCTET HTX (Sartorius, Gottingen, Germany) instrument was used to evaluate the expression and conformational integrity for each mutant. All measurements were conducted at 30° C. temperature in 96-well black plates (Corning, Corning, NY) with a final volume of 240 μL per well at a constant agitation rate of 1000 RPM.
(§2) Conformation integrity of hMPV A F protein mutants were evaluated by thermal stress experiments. Crude cell culture supernatants were normalized based on the results of the titer quantitation and then incubated for 1 hour at room temperature and two higher temperatures. […] Anti-Human IgG Fc Capture (AHC) biosensors were first equilibrated in PB before being dipped into more PB to establish the initial baseline. […] The mAb-bound biosensors were then dipped into the thermal stressed cell culture supernatants for 5 minutes. The kinetics analysis was done by OCTET data analysis software (version 12.0, Sartorius) based on curve fitting of the entire associate step.

hMPV081 = molecular target: T2, hMPV081 (hMPV A, UniProt Q6WB98 19-102)
T2 construct: T411C-Q434C, A140C-S149C, T365I
Description: as §1, §2

hMPV082 = molecular target: T3, hMPV082 (hMPV A, UniProt Q6WB98 19-102)
T3 construct: T411C-Q434C, A140C-S149C, G239A
Description: as §1, §2

hMPV083 = molecular target: T4, hMPV083 (hMPV A, UniProt Q6WB98 19-102)
T4 construct: T411C-Q434C, A140C-S149C, A459P, G239A, T49I, T365I
Description: as §1, §2

hMPV084 = molecular target: T5, hMPV084 (hMPV A, UniProt Q6WB98 19-102)
T5 construct: T411C-Q434C, L141C-A161C
Description: as §1, §2

hMPV087 = molecular target: T6, hMPV087 (hMPV A, UniProt Q6WB98 19-102)
T6 construct: T411C-Q434C, L141C-A161C, T365I
Description: as §1, §2

hMPV088 = molecular target: T7, hMPV088 (hMPV A, UniProt Q6WB98 19-102)
T7 construct: T411C-Q434C, L141C-A161C, G239A
Description: as §1, §2

hMPV089 = molecular target: T8, hMPV089 (hMPV A, UniProt Q6WB98 19-102)
T8 construct: T411C-Q434C, L141C-A161C, S149T
Description: as §1, §2

hMPV090 = molecular target: T9, hMPV090 (hMPV A, UniProt Q6WB98 19-102)
T9 construct: T411C-Q434C, L141C-A161C, A459P, G239A, T49I, S149T, T365I
Description: as §1, §2

hMPV A F WT Control = hMPV A F WT Control (hMPV A, UniProt Q6WB98 19-102)
Description: as §1, §2

B1: hMPV-2 mAb (antibody, V domains shown)
VH: QVQLQQSGAEVKKPGASVKVSCKASGYTFTSYGISWVRQAPGQGLEWMGWISGYNGNTNYAQTFQGTFTMTTDTSTSTAYMELRRLRSGDTAVYYCARDRYYASGSYNGMDVWGQGTTVTVSS
VL: QSALTQPPSASGAPGQRVTVSCSGSSSNVGSSSVYWYQQLPGTAPKLLIYRNNQRPSGVPDRFSGSKSGTSASLAISGLRSEDEADYYCAAWDDSLSGWVFGGGTKLTVLG
notes: human IgG1
B1 was tested, and the “Response Shift” value (hMPV078) was 0.86 nm, the “Response Shift” value (hMPV081) was 0.837 nm and the “Response Shift” value (hMPV082) was 0.854 nm. The “Response Shift” value (hMPV083) was 0.847 nm, the “Response Shift” value (hMPV084) was 0.862 nm and the “Response Shift” value (hMPV087) was 0.867 nm. For the same binder, the “Response Shift” value (hMPV088) was 0.878 nm, the “Response Shift” value (hMPV089) was 0.891 nm and the “Response Shift” value (hMPV090) was 0.895 nm. For the same binder, the “Response Shift” value (hMPV A F WT Control) was 0.898 nm.
